For this assay, the target named is T1, TPP-599 (HUMAN-TNFRSF12Aaa28-80-hIgG1-Fc) (human, biotinylated with Biotin-LC-NHS (about 2-fold molar excess)).
T1 construct: Dimeric Fc-fused extracellular domain of human TWEAKR, used biotinylated in the panning and the Fab ELISA; also called TWEAKR Fc; TWEAKR-Fc
The assay is described as follows: ELISA, soluble Fab on 2.5 nM biotinylated TWEAKR-Fc, anti-c-myc detection. The protocol:
Affinity maturation was carried out by phage panning. Washed magnetic beads (DynaBeads) were incubated at 4° C. with 10 nM, 1 nM, 100 pM and 10 pM of biotinylated human antigen overnight and blocked with blocking buffer (PBS with 3% BSA, 0.05% Tween-20) at 4° C. for 1 h. The blocked Fab phage library was added to the blocked TWEAKR DynaBeads at 10 000-fold, 1000-fold and 100-fold excess, compared to the theoretical library complexity, and incubated at room temperature for 30 min. Thus, 12 strategies in total were followed (4 antigen concentrations×3 Fab phage titers). […] For the expression of soluble Fab, the phagemide vector was digested with MluI to remove the gene III-membrane anchor sequence required for Fab display on the phage, and ligated again. 96 variants of each of the 12 selection pools were expressed as soluble Fabs and examined in an ELISA format. […] For efficacy maturation, HEK293 cells were transfected with an NF-kappaB reporter (BioCat, Cat. No. LR-0051-PA). Transfected cells were sown in F17 media (serum-free; Invitrogen) in white polylysine-coated 384-well plates (BD), and individual variants of the NNK-diversified position antibody (human IgG1) libraries were expressed transiently in mammalian cells. The next day, NF-kappaB reporter cells were stimulated with the expressed single-NNK antibody variants for 6 h, and a luciferase assay was then carried out by standard methods.

Where a chain is given by its changes, count along the chain named. In names and notes the source's numbering stands.

B1: TPP-883 single-substitution variant A51Q of CDR-L2 (soluble Fab) (Fab, V domains shown)
VH: EVQLLESGGGLVQPGGSLRLSCAASGFTFSPYPMMWVRQAPGKGLEWVSYISPSGGKTHYADSVKGRFTISRDNSKNTLYLQMNSLRAEDTAVYYCARGGDGYFDYFDYWGQGTLVTVSS
VL: DIQMTQSPATLSASVGDRVTITCRASQSISSYLNWYQQKPGKAPKLLIYQASSLQSGVPSRFSGSGSGTDFTLTISSLQPEDFATYYCQQSYSSPGITFGPGTKVEIK
notes: Soluble Fab
Turning to B1, the binding result is “binds”.

B2: TPP-883 single-substitution variant M35I of CDR-H1 (soluble Fab) (Fab, V domains shown)
VH: B1 VH with M35I
VL: B1 VL with Q50A
notes: Soluble Fab; also called M351
Regarding B2, the binding result is “binds”.

B3: TPP-883 single-substitution variant G97F of CDR-L3 (soluble Fab) (Fab, V domains shown)
VH: B1 VH
VL: B1 VL with Q50A, G96F
notes: Soluble Fab
Regarding B3, the binding result is “binds”.

B4: TPP-883 single-substitution variant G102T of CDR-H3 (soluble Fab) (Fab, V domains shown)
VH: B1 VH with G102T
VL: B1 VL with Q50A
notes: Soluble Fab; also called best single-substitution variant G102T
In the case of B4, the binding result is recorded as “binds”.

The record behind these values is patent US20180015176A1 (Bayer, published 2018).
